Measurements reported in patent US20050214802A1 (Genentech, published 2005).

Columns and labels:
[1] = biological target: ΔCARD human caspase 9 (lacking the first 138 residues) with Ala substitutions at residues 304 to 306 (human) (UniProt P55211); experiment: Ki(app), inhibition of ΔCARD caspase-9 hydrolysis of Ac-LEHD-AFC; too low to measure accurately
[2] = biological target: ΔCARD human caspase 9 (lacking the first 138 residues) with Ala substitutions at residues 304 to 306 (human) (UniProt P55211); experiment: caspase-9 inhibition assay, ratio of Ki(app)
[3] = biological target: ΔCARD human caspase 9 (lacking the first 138 residues) with Ala substitutions at residues 304 to 306 (human) (UniProt P55211); experiment: Ki(app), inhibition of ΔCARD caspase-9 hydrolysis of Ac-LEHD-AFC
[4] = biological target: ΔCARD human caspase 9 (lacking the first 138 residues) with Ala substitutions at residues 304 to 306 (human) (UniProt P55211); experiment: Ki(app), caspase-9 inhibition; upper end tied by Table 7 to MLBIR-Q (4,600 nM)
[5] = biological target: ΔCARD human caspase 9 (lacking the first 138 residues) with Ala substitutions at residues 304 to 306 (human) (UniProt P55211); experiment: caspase-9 inhibition assay, ratio of Ki(app); remark: listed apart in the source
[6] = biological target: ΔCARD human caspase 9 (lacking the first 138 residues) with Ala substitutions at residues 304 to 306 (human) (UniProt P55211); experiment: Ki(app), caspase-9 inhibition; lower end tied by Table 7 to full-length ML-IAP (3,200 nM)
[7] = biological target: T1, caspase-9 zymogen precursor (overexpressed in 293T cells) (UniProt P55211 1-416); experiment: co-immunoprecipitation (anti-Flag) from 293T lysates, Western blot with anti-caspase-9
T1 sequence (looked up): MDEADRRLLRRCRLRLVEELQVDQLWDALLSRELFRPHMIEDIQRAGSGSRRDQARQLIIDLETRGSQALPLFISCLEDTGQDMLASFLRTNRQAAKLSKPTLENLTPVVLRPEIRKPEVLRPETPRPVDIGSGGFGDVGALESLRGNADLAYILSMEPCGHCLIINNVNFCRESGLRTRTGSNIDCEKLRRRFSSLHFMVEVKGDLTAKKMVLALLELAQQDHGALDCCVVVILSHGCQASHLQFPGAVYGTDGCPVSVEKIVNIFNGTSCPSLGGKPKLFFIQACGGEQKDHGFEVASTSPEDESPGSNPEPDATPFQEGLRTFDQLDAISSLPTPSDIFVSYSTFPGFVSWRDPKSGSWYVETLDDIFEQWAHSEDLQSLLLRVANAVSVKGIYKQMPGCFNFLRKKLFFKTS
Method: 293T cells were transiently transfected with caspase-9 and Flag-tagged BIR domain proteins or vector. After 40 h, cells were lysed in NP40 lysis buffer (120 mM Tris, 150 mM NaCl, 1% NP-40, 1 mM DTT and protease inhibitor cocktail) and lysates immunoprecipitated (IP) with anti-Flag antibody. Samples were then Western blotted with anti-caspase-9 and anti-Flag antibodies. […] When overexpressed, caspase-9 undergoes autocatalytic processing and it is the processed form that physically interacts with XIAP and ML-IAP BIR domains.

Work on “MLXBIR3SG (ML-IAP chimera: ML-IAP-BIR framework with XIAP-BIR3 residues 336-348 in place of 160-179 and S150G)” yielded a Ki [1] of under 1 nM.

With “MLXBIR3 (ML-IAP-BIR with amino acids 160-179 replaced by amino acids 336-348 of XIAP-BIR3) (from UniProt Q96CA5 63-159; P98170 336-348)” the fold better at inhibiting caspase-9 than MLBIR-Q [2] was 5 fold, the fold less potent at inhibiting caspase-9 than XIAP-BIR3 [2] was 70 fold and the Ki [3] was 962 nM.

In the case of “XIAP-BIR3 (third BIR of XIAP, residues 252-348) (from UniProt P98170 252-348)”, the Ki [3] is reported as 13 nM.

B1: MLBIR-Q (C-terminally truncated variant of ML-IAP-BIR) (protein, human, UniProt Q96CA5 63-172, looked up, not shown: small tags and cut ends)
chain: TEEEEEEGAGATLSRGPAFPGMGSEELRLASFYDWPLTAEVPPELLAAAGFFHTGHQDKVRCFFCYGGLQSWKRGDDPWTEHAKWFPSCQFLLRSKGRDFVHSVQETHSQ
Molecule B1 has a Ki [3] of 4600 nM and a Ki [4] of 3000 to 5000 nM.

B2: full-length ML-IAP with N-terminal His6-tag (protein, human, UniProt Q96CA5 1-298, looked up, not shown: small tags and cut ends)
chain: MGPKDSAKCLHRGPQPSHWAAGDGPTQERCGPRSLGSPVLGLDTCRAWDHVDGQILGQLRPLTEEEEEEGAGATLSRGPAFPGMGSEELRLASFYDWPLTAEVPPELLAAAGFFHTGHQDKVRCFFCYGGLQSWKRGDDPWTEHAKWFPSCQFLLRSKGRDFVHSVQETHSQLLGSWDPWEEPEDAAPVAPSVPASGYPELPTPRREVQSESAQEPGGVSPAEAQRAWWVLEPPGARDVEAQLRRLQEERTCKVCLDRAVSIVFVPCGHLVCAECAPGLQLCPICRAPVRSRVRTFLS
B2 gave a fold lower potency for inhibition of caspase-9 relative to XIAP [5] of 300 fold, a Ki [3] of 3200 nM and a Ki [6] of 3000 to 5000 nM.

B3: Flag-tagged ML-IAP-BIR (expressed in 293T cells) (other, human, UniProt Q96CA5 63-179, looked up)
chain: TEEEEEEGAGATLSRGPAFPGMGSEELRLASFYDWPLTAEVPPELLAAAGFFHTGHQDKVRCFFCYGGLQSWKRGDDPWTEHAKWFPSCQFLLRSKGRDFVHSVQETHSQLLGSWDP
notes: domain: BIR; also called MLBIR; wild-type ML-IAP-BIR; not shown: Flag tag
B3: no binding [7].
